Reference: publication PMC6065357 (2018)

Molecular target: T1, pro-brain-derived neurotrophic factor (proBDNF, residues 19-249, furin sites changed to AA) (UniProt P21237 19-249)
T1 chain: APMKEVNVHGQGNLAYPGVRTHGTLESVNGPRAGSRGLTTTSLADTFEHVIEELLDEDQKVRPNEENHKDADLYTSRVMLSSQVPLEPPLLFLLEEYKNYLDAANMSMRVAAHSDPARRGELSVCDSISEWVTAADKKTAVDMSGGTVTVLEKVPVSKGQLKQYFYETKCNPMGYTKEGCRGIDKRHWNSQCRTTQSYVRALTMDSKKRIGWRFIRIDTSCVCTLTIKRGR
Test: SPR; second site of two-site fit, possibly sSorCS2 oligomerization

B1: mouse SorCS2 mature extracellular segment (sSorCS2, residues 117-1072) (receptor)
chain: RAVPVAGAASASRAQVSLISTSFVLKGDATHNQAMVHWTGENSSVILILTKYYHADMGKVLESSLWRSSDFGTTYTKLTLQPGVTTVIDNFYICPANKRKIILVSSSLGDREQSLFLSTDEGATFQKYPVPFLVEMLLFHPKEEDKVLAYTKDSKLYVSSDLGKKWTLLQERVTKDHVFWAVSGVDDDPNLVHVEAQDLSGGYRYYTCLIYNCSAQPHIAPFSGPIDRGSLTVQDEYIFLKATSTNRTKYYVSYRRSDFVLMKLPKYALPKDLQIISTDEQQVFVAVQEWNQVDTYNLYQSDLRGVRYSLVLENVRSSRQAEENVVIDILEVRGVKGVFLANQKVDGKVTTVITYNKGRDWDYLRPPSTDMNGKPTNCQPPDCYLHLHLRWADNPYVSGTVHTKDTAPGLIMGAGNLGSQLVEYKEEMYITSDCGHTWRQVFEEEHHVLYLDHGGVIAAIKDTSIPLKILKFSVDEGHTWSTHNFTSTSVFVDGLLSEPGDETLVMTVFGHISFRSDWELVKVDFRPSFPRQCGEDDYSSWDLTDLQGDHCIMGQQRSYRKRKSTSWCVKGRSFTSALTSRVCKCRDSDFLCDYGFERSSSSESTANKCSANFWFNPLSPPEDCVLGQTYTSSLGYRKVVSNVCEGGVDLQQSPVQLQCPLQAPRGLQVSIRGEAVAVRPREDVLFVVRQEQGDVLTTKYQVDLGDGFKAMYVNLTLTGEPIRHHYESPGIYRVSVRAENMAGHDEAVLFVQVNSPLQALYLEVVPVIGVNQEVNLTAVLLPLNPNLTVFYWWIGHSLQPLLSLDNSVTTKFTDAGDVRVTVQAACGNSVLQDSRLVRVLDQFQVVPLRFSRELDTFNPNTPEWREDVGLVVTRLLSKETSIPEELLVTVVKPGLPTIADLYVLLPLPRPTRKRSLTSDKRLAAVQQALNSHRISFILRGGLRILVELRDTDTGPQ
- Kd: ~30 µM
